The values below come from article PMC9173649 (2022).

The target in assay [1] is T1, C1q purified from human serum (human, UniProt P02745 23-245; P02746 28-253; P02747 29-245). In words: BLI; 2:1 heterogeneous ligand model, kd1 (first site).
Assay [2] concerns the target T1, C1q purified from human serum. In words: BLI; 2:1 heterogeneous ligand model, kd2 (second site). On the technique in general: Biolayer interferometry detects binding as a change in optical thickness at a sensor tip.
Assay [3] has the same target. Description: BLI; 2:1 heterogeneous ligand model, KD2 (second site).
Assay [4] has the same target. Description: BLI; 2:1 heterogeneous ligand model, KD1 (first site).

T1 sequence (P02745 23-245, chain 1 of 3): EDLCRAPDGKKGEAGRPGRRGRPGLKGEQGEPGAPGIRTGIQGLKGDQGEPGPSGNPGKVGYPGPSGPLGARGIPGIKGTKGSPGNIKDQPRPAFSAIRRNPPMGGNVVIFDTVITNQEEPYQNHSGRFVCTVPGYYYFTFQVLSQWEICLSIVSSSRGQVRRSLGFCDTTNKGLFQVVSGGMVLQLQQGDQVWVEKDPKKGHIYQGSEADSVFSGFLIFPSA
T1 sequence (P02746 28-253, chain 2 of 3): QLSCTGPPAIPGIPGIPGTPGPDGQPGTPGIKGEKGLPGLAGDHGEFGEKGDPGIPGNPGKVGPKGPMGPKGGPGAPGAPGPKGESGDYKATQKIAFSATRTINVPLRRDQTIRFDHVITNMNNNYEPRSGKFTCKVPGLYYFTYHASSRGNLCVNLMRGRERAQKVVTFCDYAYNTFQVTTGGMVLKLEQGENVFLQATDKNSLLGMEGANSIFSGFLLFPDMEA
T1 sequence (P02747 29-245, chain 3 of 3): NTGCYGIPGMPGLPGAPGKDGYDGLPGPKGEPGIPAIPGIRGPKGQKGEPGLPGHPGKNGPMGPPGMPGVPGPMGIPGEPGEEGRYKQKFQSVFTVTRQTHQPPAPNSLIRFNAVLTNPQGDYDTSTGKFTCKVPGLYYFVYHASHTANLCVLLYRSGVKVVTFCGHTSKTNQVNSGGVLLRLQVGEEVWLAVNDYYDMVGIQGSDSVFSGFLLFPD

B1: C1r2C1s2 catalytic tetramer (complex)
chain 1: SIPIPQKLFGEVTSPLFPKPYPNNFETTTVITVPTGYRVKLVFQQFDLEPSEGCFYDYVKISADKKSLGRFCGQLGSPLGNPPGKKEFMSQGNKMLLTFHTDFSNEENGTIMFYKGFLAYYQAVDLDECASRSKSGEEDPQPQCQHLCHNYVGGYFCSCRPGYELQEDTHSCQAECSSELYTEASGYISSLEYPRSYPPDLRCNYSIRVERGLTLHLKFLEPFDIDDHQQVHCPYDQLQIYANGKNIGEFCGKQRPPDLDTSSNAVDLLFFTDESGDSRGWKLRYTTEIIKCPQPKTLDEFTIIQNLQPQYQFRDYFIATCKQGYQLIEGNQVLHSFTAVCQDDGTWHRAMPRCKIKDCGQPRNLPNGDFRYTTTMGVNTYKARIQYYCHEPYYKMQTRAGSRESEQGVYTCTAQGIWKNEQKGEKIPRCLPVCGKPVNPVEQRQRIIGGQKAKMGNFPWQVFTNIHGRGGGALLGDRWILTAAHTLYPKEHEAQSNASLDVFLGHTNVEELMKLGNHPIRRVSVHPDYRQDESYNFEGDIALLELENSVTLGPNLLPICLPDNDTFYDLGLMGYVSGFGVMEEKIAHDLRFVRLPVANPQACENWLRGKNRMDVFSQNMFCAGHPSLKQDACQGDSGGVFAVRDPNTDRWVATGIVSWGIGCSRGYGFYTKVLNYVDWIKKEMEEED
chain 2: EPTMYGEILSPNYPQAYPSEVEKSWDIEVPEGYGIHLYFTHLDIELSENCAYDSVQIISGDTEEGRLCGQRSSNNPHSPIVEEFQVPYNKLQVIFKSDFSNEERFTGFAAYYVATDINECTDFVDVPCSHFCNNFIGGYFCSCPPEYFLHDDMKNCGVNCSGDVFTALIGEIASPNYPKPYPENSRCEYQIRLEKGFQVVVTLRREDFDVEAADSAGNCLDSLVFVAGDRQFGPYCGHGFPGPLNIETKSNALDIIFQTDLTGQKKGWKLRYHGDPMPCPKEDTPNSVWEPAKAKYVFRDVVQITCLDGFEVVEGRVGATSFYSTCQSNGKWSNSKLKCQPVDCGIPESIENGKVEDPESTLFGSVIRYTCEEPYYYMENGGGGEYHCAGNGSWVNEVLGPELPKCVPVCGVPREPFEEKQRIIGGSDADIKNFPWQVFFDNPWAGGALINEYWVLTAAHVVEGNREPTMYVGSTSVQTSRLAKSKMLTPEHVFIHPGWKLLEVPEGRTNFDNDIALVRLKDPVKMGPTVSPICLPGTSSDYNLMDGDLGLISGWGRTEKRDRAVRLKAARLPVAPLRKCKEVKVEKPTADAEAYVFTPNMICAGGEKGMDSCKGDSGGAFAVQDPNDKTKFYAAGLVSWGPQCGTYGLYTRVKNYVDWIMKTMQENSTPRED
For the molecule B1, the figures for the koff in assay [1] and in assay [2] were 0.000402 s⁻¹ and 0.00928 s⁻¹, respectively. For the same molecule, the values for the Kd in assay [3] and in assay [4] were 4.33 nM and 10 nM, respectively.
